According to US20250197848A1 (published 2025):
Blank lines part the entries; values can stand above or below the binder they belong to.

Columns and labels:
[1] = target: T1, NY-ESO-1/LAGE-1 peptide on HLA-A*02 (human); experiment: cytokine release
T1 peptide: SLLMWITQC

[2] = target: T2, PRAME peptide on HLA-A*02:01 (human); experiment: cytokine release
T2 peptide: VLDGLDVLL

[3] = target: T3, PRAME peptide on HLA-A*02:01 (human); experiment: activation reporter or marker
T3 peptide: SLLQHLIGL

- binding result [1]: recognises
B1: NY-ESO TCR (TCR, V domains shown)
Valpha: QKEVEQNSGPLSVPEGAIASLNCTYSDRGSQSFFWYRQYSGKSPELIMFIYSNGDKEDGRFTAQLNKASQYVSLLIRDSQPSDSATYLCAADDKIIFGKGTRLHILP
Vbeta: DAGVIQSPRHEVTEMGQEVTLRCKPISGHDYLFWYRQTMMRGLELLIYFNNNVPIDDSGMPEDRFSAKMPNASFSTLKIQPSEPRDSAVYFCASSRGGSGYTFGSGTRLTVV

- binding result [2]: recognises
- binding result [3]: no recognition
B2: PRAMEVLD-TCR (TCR, V domains shown)
Valpha: EDQVTQSPEALRLQEGESSSLNCSYTVSGLRGLFWYRQDPGKGPEFLFTLYSAGEEKEKERLKATLTKKESFLHITAPKPEDSATYLCAVHSTAQAGTALIFGKGTTLSVSS
Vbeta: DSGVTQTPKHLITATGQRVTLRCSPRSGDLSVYWYQQSLDQGLQFLIQYYNGEERAKGNILERFSAQQFPDLHSELNLSSLELGDSALYFCASSTHRGQTNYGYTFGSGTRLTVV
